Reference: IntAct's records for PubMed 23559066

B1: Autophagy-related protein 32 (Saccharomyces cerevisiae), P40458 (parent)
chain: MVLEYQQREGKGSSSKSMPPDSSSTTIHTCSEAQTGEDKGLLDPHLSVLELLSKTGHSPSPMGQNLVTSIDISGNHNVNDSISGSWQAIQPLDLGASFIPERCSSQTTNGSILSSSDTSEEEQELLQAPAADIINIIKQGQEGANVVSPSHPFKQLQKIISLPLPGKEKTPFNEQDDDGDEDEAFEEDSVTITKSLTSSTNSFVMPKLSLTQKNPVFRLLILGRTGSSFYQSIPKEYQSLFELPKYHDSATFPQYTGIVIIFQELREMVSLLNRIVQYSQGKPVIPICQPGQVIQVKNVLKSFLRNKLVKLLFPPVVVTNKRDLKKMFQRLQDLSLEYGEDVNEEDNDDEAIHTKSRSYCRNKKAENSKKKSPKSNKKPKRKKQKFFTSWFTWGISITIGISFGCCVTYFVTAAYEHQTVKSLSLRPSILASLLSLDSSSDTINTPATASPSSTEQFLWFDKGTLQINFHSDGFIMKSLTIIKETWGKMNTFVLHALSKPLKFLENLNKSSEFSIDESNRILALGYILL
partner: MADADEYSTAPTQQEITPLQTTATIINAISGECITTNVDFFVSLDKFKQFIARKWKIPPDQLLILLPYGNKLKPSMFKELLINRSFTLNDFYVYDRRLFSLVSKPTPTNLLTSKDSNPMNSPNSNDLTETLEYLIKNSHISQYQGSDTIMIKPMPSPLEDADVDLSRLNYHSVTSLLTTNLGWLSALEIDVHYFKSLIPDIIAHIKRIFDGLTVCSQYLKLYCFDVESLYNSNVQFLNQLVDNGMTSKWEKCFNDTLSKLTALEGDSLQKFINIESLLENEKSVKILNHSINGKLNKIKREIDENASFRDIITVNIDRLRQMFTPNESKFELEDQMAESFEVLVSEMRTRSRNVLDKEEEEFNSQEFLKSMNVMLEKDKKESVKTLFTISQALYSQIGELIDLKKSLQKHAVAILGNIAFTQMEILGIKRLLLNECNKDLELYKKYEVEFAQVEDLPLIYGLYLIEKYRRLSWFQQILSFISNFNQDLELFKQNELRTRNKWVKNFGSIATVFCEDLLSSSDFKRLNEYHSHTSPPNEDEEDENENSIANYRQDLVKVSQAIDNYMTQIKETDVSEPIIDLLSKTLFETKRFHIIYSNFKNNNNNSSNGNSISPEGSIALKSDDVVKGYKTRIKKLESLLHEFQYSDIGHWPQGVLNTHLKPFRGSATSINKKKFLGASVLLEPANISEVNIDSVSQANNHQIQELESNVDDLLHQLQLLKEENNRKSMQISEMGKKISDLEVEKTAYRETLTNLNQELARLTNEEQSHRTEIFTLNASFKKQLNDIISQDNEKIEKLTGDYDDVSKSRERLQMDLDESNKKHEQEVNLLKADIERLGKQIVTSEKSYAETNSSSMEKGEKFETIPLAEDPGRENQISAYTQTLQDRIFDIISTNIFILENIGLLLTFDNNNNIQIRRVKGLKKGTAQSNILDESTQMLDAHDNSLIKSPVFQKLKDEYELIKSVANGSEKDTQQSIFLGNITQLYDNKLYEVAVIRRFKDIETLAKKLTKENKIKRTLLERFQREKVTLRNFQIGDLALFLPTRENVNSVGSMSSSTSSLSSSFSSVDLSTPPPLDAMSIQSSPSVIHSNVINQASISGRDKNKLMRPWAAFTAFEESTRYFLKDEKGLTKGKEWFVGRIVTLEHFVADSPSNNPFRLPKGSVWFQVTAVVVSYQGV
B2: Autophagy-related protein 36 (Saccharomyces cerevisiae), P46983 (parent)
chain: MASVNNYQVDCGSRSARIQPRINNGIHDEESLFEVLELSEEEFELDFHRLKSFNDVRVINNPDLSPECTNTAISRDETLESASSAFEVPSDEIAILSISSDSNKNSPPSEQPAPALRNIRSSSNSDRIDEWCLGSHLFNELHQNVPQSSDGVNHGFPVYSFKERELYTSAKLKKLTNAQRIAVQKLSRDLYPILRTCYREKTRRQLLTYHHERIFDDIPSFFPQRDFIFNYYSMPLEFDRLSDVDIDSSSRSRFTDESTGETLNRSPSAASSSLENTSWFGWTLLSRFLDREW
partner: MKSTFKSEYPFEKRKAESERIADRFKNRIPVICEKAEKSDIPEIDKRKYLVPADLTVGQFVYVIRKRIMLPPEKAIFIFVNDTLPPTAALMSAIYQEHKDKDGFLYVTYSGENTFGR
B3: Autophagy-related protein 36 (Saccharomyces cerevisiae), P46983 (parent)
chain: B2 chain
partner: B1 partner
B4: Autophagy-related protein 32 (Saccharomyces cerevisiae), P40458 (parent)
chain: B1 chain
partner: B2 partner

Variants of: B1
Conditions: with atg11_yeast ATG11, Q12527

effect of a mutation on the interaction	Variant
disrupting interaction	S114A;S119A

Variants of: B2
Conditions: with atg8_yeast ATG8, P38182

effect of a mutation on the interaction	Variant
disrupting interaction	S31A

Variants of: B2
Conditions: with atg8_yeast ATG8, P38182
Remark: another data set of the same source

effect of a mutation on the interaction	Variant
disrupting interaction	F33A;L36A

Variants of: B3
Conditions: with atg11_yeast ATG11, Q12527

effect of a mutation on the interaction	Variant
disrupting interaction	S97A

Variants of: B4
Conditions: with atg8_yeast ATG8, P38182

effect of a mutation on the interaction	Variant
disrupting interaction	S81A;S83A;S85A
